This is an account of results in PMC8567585.

The target of one data set is His-OsbR (oxidative stress response and biofilm formation regulator, CV_3905, MarR family) (Chromobacterium violaceum). Kind of data set: non-reducing SDS-PAGE (covalent dimers after oxidation); purified His-OsbR incubated with the oxidants TBHP, CHP or H2O2 at 0.1 and 1 mM, room temperature, alkylated with 100 mM NEM for 2 h, non-reducing SDS-PAGE, Coomassie staining; monomer to covalent dimer.
Conditions: not given
For orientation: stoichiometry N means a count of units in the complex or per binding partner. Consider “His-OsbR (oxidative stress response and biofilm formation regulator, CV_3905, MarR family) (natural protein)”, for which the stoichiometry N came to 2.

For another data set, the target named is T1, His-OsbR (Chromobacterium violaceum ATCC 12472) (UniProt Q7NR79).
T1 sequence: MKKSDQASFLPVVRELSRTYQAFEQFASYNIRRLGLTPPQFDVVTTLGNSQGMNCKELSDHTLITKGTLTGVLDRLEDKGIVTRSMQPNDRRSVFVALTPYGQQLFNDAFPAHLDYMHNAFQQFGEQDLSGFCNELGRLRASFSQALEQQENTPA
Kind of data set: EMSA. To be noted: EMSA with 32P-labeled PCR probes and reduced His-OsbR; buffer, salt, pH and temperature not given (refers to earlier papers); CHP pretreatment at room …. A general note: In EMSA bound probe runs differently from free probe, usually more slowly.
“ATCGGGATGCCCAGCACCGCGAACATCATCCAGACCATGAAGCAGAGGGTGAAAGCCAGCGTGCTGCTGGCCAGCACGCTGTAGCGTTTGAATGTCGGGGAAGTCATGGCGCCATATCCATGGAGTGGTCATGGCTACCACGATAAGCGACGGCGGCGCGCGCCGATATTCGTCTGTCGCAGGACTGTCAGTCTGCCAACGGACGAGGCGGATTAACCCTTACGGCTGGCGCCGGCTACTCCCAATGGGGGAGAGTCA (double strand) [narK1 promoter]”: the binding result was “no binding”.

With “CCTCGTAAAAGCGGATGGCGCGGGTGGTGATGTCGAACTCCTGCGCGAGTTCGGTGATGTTGAAAACCTGTTCGCCCATGCGTCTGTCCCTTTATCTTCCCGCTGCGGCCACGCGCGCCACAGTCGGGTGCTTTTGCATTCATTGTCTGTTGACGTTGACGTAAACGTCAAGTTATCGTGATCGAAAGTAGAGCAAACAGTCCAGGAGAAGCAGATGAGCCAGAAAATCGGCGTGGTGGGCGCGGGCACGATGGGCAACGGCATCGCCCAGGTCTTCGCGATGAAGGGTTTCGACG (double strand) [CV_2087 promoter]”, the binding result is listed as “binds”.

Take “CTCGCTGGCCGATCTGGGACGCGGCCCGGTGCGGGCGGCCGCCTGATCGCGGTTTCGCGCCCGCTTGGCGCGGGCGCGTCGCGGTTCCGCATAATAATAAATTGCTTGCAATTAAATAGTGCACTATTTATTATGCGGCCATGGAACAAGAAAACACGTGCCCGCCGCAGGACGCGCTTTTGCGGCTGGACCAGCAACTCTGCTTCGCGCTGTATTCCGCC (double strand) [ohrR promoter]”: the binding entry was “no binding”.

As for “GACCAAGTGATAGACGCCGGCACGCTGCGCGCGGTGTACGGCGTGAACGGCCGGGTGGAGCGCTGCACGCAGGGCGTGCCCCACGTGCTGGTGGACGGCCTGGCCGCAGGCTGAGCGCCGCGGCGGGGCGGCGCTCGCCGTCCCGCCCGATTGAAATCTTCACTCCCTCGCAAGAATGCGATTGAAATTGATATTCAATCGCATTTATGATGTCAGCCTCCGCTCAGGAGCCGCCCAGGCGGCCAAAACCAATAACAGGCAGACATCCTCATGACCGAGAAGCTTTAGGCC (double strand) [cbaF promoter]”, the binding result is “no binding”.

For “GACCATACTAGACAGCTACGCCACCTTCAGCGCCATCGACCGCCACAGCGAAAGCCGCCAGAAACATCCCTTCGTCGCGCAATTGCTGCGCCGCTATCCGCAAATCACCACGCTG (double strand) [CV_0208 coding region]”, the binding entry is “no binding”.

“TTGGATCCTGCCGGAGCGGAATGCAACTGGACGATATCGCCGGATTGAGGCAGTCGCTGTGCGATCTGCGCGACCGGCTGCTGCAATGAACCCGTCAGGGTTTTGATAGTTAGATAGTGCACTATTAAATAGCTCATTATTTTAATCGCAACGGCGTCAAGCCAAGGAGAGCCAGATGAACCCTCTGCAAAAAGTACTGTATACCGCCGAAGCCACCGCCTGCAGTAAT (double strand) [ohrA promoter]”: the binding entry is reported as “binds”.
